B1: GTGCAC_site9798 (dsDNA)
DNA 1: ATCATATGTATGGTGGTGCATTATGCATGAATTTTA
DNA 2: TAAAATTCATGCATAATGCACCACCATACATATGAT
B2: GTGCAC_site9772 (dsDNA)
DNA 1: TATATTATCAAAATGGTGCAATAATTTCTATATTAT
DNA 2: ATAATATAGAAATTATTGCACCATTTTGATAATATA
B3: GTGCAC_site9629 (dsDNA)
DNA 1: ATATCAAATAATTTAGTGCACTTTTTTTTTTCTTTT
DNA 2: AAAAGAAAAAAAAAAGTGCACTAAATTATTTGATAT
B4: GTGCAC_site9920 (dsDNA)
DNA 1: ATAATTATATGATGAGTGCACAATAAAAATATCGTT
DNA 2: AACGATATTTTTATTGTGCACTCATCATATAATTAT
B5: GTGCAC_site9796 (dsDNA)
DNA 1: ATATATATATATATAGTGCAAATAAAAAATAGACAA
DNA 2: TTGTCTATTTTTTATTTGCACTATATATATATATAT
B6: GTGCAC_site10491 (dsDNA)
DNA 1: TAGTGATATAATTATGTGCACTTAATACAGGTCGAT
DNA 2: ATCGACCTGTATTAAGTGCACATAATTATATCACTA
B7: GTGCAC_site10780 (dsDNA)
DNA 1: TACAGTTCAATGAAGGTGCAATTAATATATAAAATA
DNA 2: TATTTTATATATTAATTGCACCTTCATTGAACTGTA
B8: GTGCAC_site10741 (dsDNA)
DNA 1: AAACAAAACAACTAAGTGCATAAAAATAAAATAAAT
DNA 2: ATTTATTTTATTTTTATGCACTTAGTTGTTTTGTTT
B9: GTGCAC_site9541 (dsDNA)
DNA 1: ATGAGTAACATATTTGTGCACATATGGTTATTTTTA
DNA 2: TAAAAATAACCATATGTGCACAAATATGTTACTCAT
B10: GTGCAC_site10685 (dsDNA)
DNA 1: TTATATTTCACAAATGTGCACAGATACATATATATA
DNA 2: TATATATATGTATCTGTGCACATTTGTGAAATATAA
B11: GTGCAC_site9829 (dsDNA)
DNA 1: GAACGAAATAAGTGTGTGCACATGTAACCACAAATC
DNA 2: GATTTGTGGTTACATGTGCACACACTTATTTCGTTC
B12: GTGCAC_site9591 (dsDNA)
DNA 1: ACATATTATATATGTGTGCACATATATATATATTTA
DNA 2: TAAATATATATATATGTGCACACATATATAATATGT
B13: GTGCAC_site9967 (dsDNA)
DNA 1: ACATCGATTTATATTCTGCACTGAAGAAACTACAAC
DNA 2: GTTGTAGTTTCTTCAGTGCAGAATATAAATCGATGT
B14: GTGCAC_site9478 (dsDNA)
DNA 1: ATATTATATTGGATGTTGCACTTAACAAAAGGATAT
DNA 2: ATATCCTTTTGTTAAGTGCAACATCCAATATAATAT
B15: GTGCAC_site9679 (dsDNA)
DNA 1: TTTCTTTAATATATAGTGCATGTAAATTTTACAATA
DNA 2: TATTGTAAAATTTACATGCACTATATATTAAAGAAA
B16: GTGCAC_site9965 (dsDNA)
DNA 1: AAGAACAAATATGAGGTGCAACACAATATATTATTA
DNA 2: TAATAATATATTGTGTTGCACCTCATATTTGTTCTT
B17: GTGCAC_site10292 (dsDNA)
DNA 1: ATAATATGTTATTAAGTGCATATTAATTATTATTAT
DNA 2: ATAATAATAATTAATATGCACTTAATAACATATTAT
B18: GTGCAC_negctrl_site138 (dsDNA)
DNA 1: AAAAACAATCATTTTAAATAAAAATCTCTAATTTAA
DNA 2: TTAAATTAGAGATTTTTATTTAAAATGATTGTTTTT
B19: GTGCAC_negctrl_site342 (dsDNA)
DNA 1: TATTTATATAATCCTATAATATTACTACTATCTTTA
DNA 2: TAAAGATAGTAGTAATATTATAGGATTATATAAATA
B20: GTGCAC_negctrl_site257 (dsDNA)
DNA 1: TGCAAAAAAAAAAAAAAAAAATATATGGAAATATAT
DNA 2: ATATATTTCCATATATTTTTTTTTTTTTTTTTTGCA
B21: GTGCAC_negctrl_site614 (dsDNA)
DNA 1: TATTTAGACATAACAAATAGACTAACAAAAGATTTA
DNA 2: TAAATCTTTTGTTAGTCTATTTGTTATGTCTAAATA
B22: GTGCAC_negctrl_site13 (dsDNA)
DNA 1: AAAAAAAAAAATATATTAAAATAAAAAATATTAACA
DNA 2: TGTTAATATTTTTTATTTTAATATATTTTTTTTTTT
B23: GTGCAC_negctrl_site154 (dsDNA)
DNA 1: AATAGTATTCACAAAGTTTTATATAATAAATATAAA
DNA 2: TTTATATTTATTATATAAAACTTTGTGAATACTATT
B24: GTGCAC_negctrl_site175 (dsDNA)
DNA 1: AAAATGTATGGAATGCTCTTTTTTAAGTATTATATA
DNA 2: TATATAATACTTAAAAAAGAGCATTCCATACATTTT
B25: GTGCAC_negctrl_site298 (dsDNA)
DNA 1: TTTTAACAAAACTAAATAATCATATATATAAGATAT
DNA 2: ATATCTTATATATATGATTATTTAGTTTTGTTAAAA
B26: GTGCAC_negctrl_site27 (dsDNA)
DNA 1: ACATATGTATGAATATCAAAAAATCCCTATTTAATG
DNA 2: CATTAAATAGGGATTTTTTGATATTCATACATATGT
B27: GTGCAC_negctrl_site305 (dsDNA)
DNA 1: ATTTATATAAAATTAAAATAATACAAATTTATTCAT
DNA 2: ATGAATAAATTTGTATTATTTTAATTTTATATAAAT
B28: GTGCAC_negctrl_site177 (dsDNA)
DNA 1: TCACAAAAAGAACATTGATATTATTATAAAATCGTC
DNA 2: GACGATTTTATAATAATATCAATGTTCTTTTTGTGA
B29: GTGCAC_negctrl_site601 (dsDNA)
DNA 1: TAAGCCAAGGGATAAATAAAATAACAAAATGAAATC
DNA 2: GATTTCATTTTGTTATTTTATTTATCCCTTGGCTTA
B30: GTGCAC_negctrl_site155 (dsDNA)
DNA 1: AAATTTTTTAATTTTTCTCATTTAATTTAAAAATTA
DNA 2: TAATTTTTAAATTAAATGAGAAAAATTAAAAAATTT
B31: GTGCAC_negctrl_site245 (dsDNA)
DNA 1: TTTTATATCTAGTTTATATTTCTTAAATAAATAAAT
DNA 2: ATTTATTTATTTAAGAAATATAAACTAGATATAAAA
B32: GTGCAC_negctrl_site39 (dsDNA)
DNA 1: AAACAGCATGGTATACCTATAAAATATATATACTAA
DNA 2: TTAGTATATATATTTTATAGGTATACCATGCTGTTT
B33: GTGCAC_negctrl_site122 (dsDNA)
DNA 1: ATCTTAGTTGAAATATAGAATTTATAATAAAAGTTA
DNA 2: TAACTTTTATTATAAATTCTATATTTCAACTAAGAT
B34: GTGCAC_negctrl_site641 (dsDNA)
DNA 1: TTTTCTTGACCTATTATTCTTCTCATAGTATAATAT
DNA 2: ATATTATACTATGAGAAGAATAATAGGTCAAGAAAA
B35: GTGCAC_negctrl_site472 (dsDNA)
DNA 1: TATTTAAAATAATAACAAAATTAACATAAATATATA
DNA 2: TATATATTTATGTTAATTTTGTTATTATTTTAAATA
B36: GTGCAC_negctrl_site301 (dsDNA)
DNA 1: TTTATTTATTTATATTTTTTTATATAATTTATATAT
DNA 2: ATATATAAATTATATAAAAAAATATAAATAAATAAA
B37: GTGCAC_negctrl_site633 (dsDNA)
DNA 1: AAAAAAATAAAAAATATATAAATAATTAATACATGT
DNA 2: ACATGTATTAATTATTTATATATTTTTTATTTTTTT
B38: GTGCAC_negctrl_site715 (dsDNA)
DNA 1: TTTTTTCTTTTATGTGAAATGTAATATTGTTATATA
DNA 2: TATATAACAATATTACATTTCACATAAAAGAAAAAA

Tests used:
[1] = biological target: T1, HDP1 homeodomain-like (Plasmodium falciparum, UniProt Q8IKH4 2990-3078); experiment: gcPBM; about 25 ug protein; PBS, 1% milk, 0.2 mg/ml BSA, salmon testes DNA, 0.03% Triton X-100; settings: tags: N-terminal GST (pGEX-4T-1), kept; chain copies: 2; label: surface-attached array probe
T1 sequence: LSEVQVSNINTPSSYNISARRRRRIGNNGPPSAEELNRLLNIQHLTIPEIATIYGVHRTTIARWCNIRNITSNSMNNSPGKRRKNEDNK

[2] = biological target: AP2-I D3 (Plasmodium falciparum, UniProt Q8IJW6 910-1027); experiment: as above; settings: tags: N-terminal GST (pGEX-4T-1), kept; label: surface-attached array probe

Row | Binder | binding signal [1] | binding signal [2]
1 | B1 | 10.4 ln median PBM intensity, better of two orientations | 12 ln median PBM intensity, better of two orientations
2 | B2 | 10 ln median PBM intensity, better of two orientations | 12 ln median PBM intensity, better of two orientations
3 | B3 | 10.8 ln median PBM intensity, better of two orientations | 12 ln median PBM intensity, better of two orientations
4 | B4 | 9.38 ln median PBM intensity, better of two orientations | 11.2 ln median PBM intensity, better of two orientations
5 | B5 | 10 ln median PBM intensity, better of two orientations | 11.2 ln median PBM intensity, better of two orientations
6 | B6 | 11.1 ln median PBM intensity, better of two orientations | 11.1 ln median PBM intensity, better of two orientations
7 | B7 | 9.1 ln median PBM intensity, better of two orientations | 11.1 ln median PBM intensity, better of two orientations
8 | B8 | 8.67 ln median PBM intensity, better of two orientations | 10.7 ln median PBM intensity, better of two orientations
9 | B9 | 11.1 ln median PBM intensity, better of two orientations | 10.4 ln median PBM intensity, better of two orientations
10 | B10 | 11.1 ln median PBM intensity, better of two orientations | 10.1 ln median PBM intensity, better of two orientations
11 | B11 | 9.93 ln median PBM intensity, better of two orientations | 9.08 ln median PBM intensity, better of two orientations
12 | B12 | 9.98 ln median PBM intensity, better of two orientations | 9.12 ln median PBM intensity, better of two orientations
13 | B13 | 7.69 ln median PBM intensity, better of two orientations | 9.3 ln median PBM intensity, better of two orientations
14 | B14 | 8.41 ln median PBM intensity, better of two orientations | 9.38 ln median PBM intensity, better of two orientations
15 | B15 | 8.12 ln median PBM intensity, better of two orientations | 9.43 ln median PBM intensity, better of two orientations
16 | B16 | 10.2 ln median PBM intensity, better of two orientations | 9.55 ln median PBM intensity, better of two orientations
17 | B17 | 9.18 ln median PBM intensity, better of two orientations | 9.72 ln median PBM intensity, better of two orientations
18 | B18 | 5.6 ln median PBM intensity, better of two orientations | 6.74 ln median PBM intensity, better of two orientations
19 | B19 | 6.28 ln median PBM intensity, better of two orientations | 6.86 ln median PBM intensity, better of two orientations

Row | Binder | binding signal [1] | binding signal [2]
20 | B20 | 6.13 ln median PBM intensity, better of two orientations | 6.92 ln median PBM intensity, better of two orientations
21 | B21 | 6.13 ln median PBM intensity, better of two orientations | 6.94 ln median PBM intensity, better of two orientations
22 | B22 | 6.05 ln median PBM intensity, better of two orientations | 6.95 ln median PBM intensity, better of two orientations
23 | B23 | 5.94 ln median PBM intensity, better of two orientations | 6.96 ln median PBM intensity, better of two orientations
24 | B24 | 6.2 ln median PBM intensity, better of two orientations | 6.96 ln median PBM intensity, better of two orientations
25 | B25 | 6.21 ln median PBM intensity, better of two orientations | 6.97 ln median PBM intensity, better of two orientations
26 | B26 | 6.3 ln median PBM intensity, better of two orientations | 6.97 ln median PBM intensity, better of two orientations
27 | B27 | 6.1 ln median PBM intensity, better of two orientations | 7 ln median PBM intensity, better of two orientations
28 | B28 | 6.14 ln median PBM intensity, better of two orientations | 7 ln median PBM intensity, better of two orientations
29 | B29 | 6.27 ln median PBM intensity, better of two orientations | 7.02 ln median PBM intensity, better of two orientations
30 | B30 | 5.71 ln median PBM intensity, better of two orientations | 7.03 ln median PBM intensity, better of two orientations
31 | B31 | 6.07 ln median PBM intensity, better of two orientations | 7.05 ln median PBM intensity, better of two orientations
32 | B32 | 6.18 ln median PBM intensity, better of two orientations | 7.07 ln median PBM intensity, better of two orientations
33 | B33 | 6.01 ln median PBM intensity, better of two orientations | 7.07 ln median PBM intensity, better of two orientations
34 | B34 | 6.18 ln median PBM intensity, better of two orientations | 7.08 ln median PBM intensity, better of two orientations
35 | B35 | 6.24 ln median PBM intensity, better of two orientations | 7.1 ln median PBM intensity, better of two orientations
36 | B36 | 6.28 ln median PBM intensity, better of two orientations | 7.13 ln median PBM intensity, better of two orientations
37 | B37 | 6.32 ln median PBM intensity, better of two orientations | 7.14 ln median PBM intensity, better of two orientations
38 | B38 | 6.24 ln median PBM intensity, better of two orientations | 7.2 ln median PBM intensity, better of two orientations
